From article PMC6546054 (Genes & Development, 2019)
Where a chain is given by its changes, count along the chain named. Names may count otherwise.

B1: His6IraD (wild type) (natural protein, E. coli K12, UniProt P39375 1-130, looked up)
chain: MMRQSLQAVLPEISGNKTSSLRKSVCSDLLTLFNSPHSALPSLLVSGMPEWQVHNPSDKHLQSWYCRQLRSALLFHEPRIAALQVNLKEAYCHTLAISLEIMLYHDDEPLTFDLVWDNGGWRSATLENVS
B2: RssB^CC (natural protein, E. coli K12, UniProt P0AEV1 1-337, looked up)
chain: MTQPLVGKQILIVEDEQVFRSLLDSWFSCLGATTVLAADGVDALELLGGFTPDLMICDIAMPRMNGLKLLEHIRNRGDQTPVLVISATENMADIAKALRLGVEDVLLKPVKDLNRLREMVFACLYPSMFNSRVEEEERLFRDWDAMVDNPAAAAKLLQELQPPVQQVISHCRVNYRQLVAADKPGLVLDIAALSENDLAFYCLDVTRAGHNGVLAALLLRALFNGLLQCQLAHQNQRLPELGALLKQVNHLLRQANLPGQFPLLVGYYHRELKNLILVSAGLNATLNTGEHQVQISNGVPLGTLGNAYLNQLSQRCDAWQCQIWGTGGRLRLMLSAE
B3: RssB^D104N (natural protein, E. coli K12, UniProt P0AEV1 1-337, looked up)
chain: B2 chain with C29S, D104N, C229E

Assays:
[1] = target: RssB (wild type) (E. coli K12) (UniProt P0AEV1); assay: cross-linking
RssB (wild type) = target: T1, RssB (wild type) (E. coli K12, UniProt P0AEV1 1-337); assay: pull-down
T1 sequence (looked up): B2 chain with C29S, C229E

RssB^(Q254A N256A) = target: T2, RssB^(Q254A N256A) (E. coli K12, UniProt P0AEV1 1-337, Q254A | N256A); assay: pull-down
T2 sequence (looked up): B2 chain with C29S, C229E, Q254A, N256A

RssB^R115A = target: T3, RssB^R115A (E. coli K12, UniProt P0AEV1 1-337, R115A); assay: pull-down
T3 sequence (looked up): B2 chain with C29S, R115A, C229E

RssB^AAA = target: T4, RssB^AAA (E. coli K12, UniProt P0AEV1 1-337, E134-E137 to EAAA); assay: pull-down
T4 sequence (looked up): B2 chain with C29S, E135A, E136A, E137A, C229E

cross-linking = target: the molecule itself; assay: cross-linking
His6IraD (wild type) = target: B1; assay: pull-down

Molecule: RssB (wild type) (from UniProt P0AEV1 1-337) (natural protein)
- stoichiometry N [1]: 2

Molecule: B1
- binding result (RssB (wild type)): binds
- binding result (RssB^(Q254A N256A)): binds
- binding result (RssB^R115A): binds
- binding result (RssB^AAA): binds

Molecule: B2
- stoichiometry N (cross-linking): 2

Molecule: B3
- binding relative to wild type (His6IraD (wild type)): 18 ± 3%
